The assay concerns the target human brain-derived G protein-coupled receptor protein ZAQ (human). As to the kind of experiment: cell-based or functional assay.

Data on one substance can be found in EP1207198A1.

For the substance “Human type ZAQ ligand mature peptide (type G, 86 amino acid residues)”, the increase in the intracellular calcium ion concentration (FLIPR), EC50 came out at 96 pM.
